Laboratory results as given in the supplement of paper PMC9732359.
± gives the uncertainty stated by the source.

Test: protein stability index of a GFP-peptide fusion (yeast GPS) (PSI 1-4); higher = more stable; sorted into four equal gates, so the index is relative within each strain
Procedure, shortened: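 Tiled yeast protein peptides of 17 residues were each joined downstream of GFP, on plasmids that also express Cherry. The pooled library was maintained in yeast, and mid-log cultures in leucine-free medium were sorted into four equal gates on the GFP/Cherry ratio. Plasmids from every gate were amplified by PCR and sequenced on Illumina, with barcodes linking reads to strains. The protein stability index of a peptide is its gate-number-weighted read frequency summed over the gates.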

Row | Sequence | protein stability index (doa10∆) | protein stability index (pdr5∆) | protein stability index (ubr1∆) | protein stability index (san1∆)
1 | SPAVKKLLQLAGVEDVY [RPS2] | 1.58 ± 0.062 | 1.76 ± 0.14 | 2.05 ± 0.2 | 
2 | RSGSNAAASLPSKKLKT [RPC82] | 2.71 ± 0.068 | 2.91 ± 0.078 | 2.76 ± 0.033 | 2.71 ± 0.05
3 | NLNDKFGIYILTQGING [MED1] | 1.54 ± 0.04 | 1.47 ± 0.032 | 1.43 ± 0.031 | 1.6 ± 0.096
4 | ISIYNMLPPKSVKFTHI [SSN2] | 1.64 ± 0.069 | 1.76 ± 0.057 | 2.29 ± 0.034 | 2.13 ± 0.066
5 | GLEVGPVVQVGIFIKIL [IRR1] | 2.38 ± 0.068 | 2.25 ± 0.056 | 2.47 ± 0.059 | 2.11 ± 0.15
6 | PFMLQWGIPLIKELRSK [FAS1] | 1.69 ± 0.069 | 1.63 ± 0.074 | 1.58 ± 0.049 | 1.44 ± 0.1
7 | STNSNSKPSTASPSAHT [RPN4] | 2.63 ± 0.055 | 3.01 ± 0.086 | 2.82 ± 0.042 | 2.75 ± 0.061
8 | IPATIFDKVIYHLHPTF [TAF14] | 2.61 ± 0.066 | 2.8 ± 0.068 | 2.78 ± 0.057 | 2.55 ± 0.062
9 | ANNYSSNIGNNSINNNN [YDL088C/ASM4] | 2.51 ± 0.071 | 3.19 ± 0.078 | 2.76 ± 0.054 | 2.94 ± 0.085
10 | KNKENNTFTWNHSLQHQ [RPN4] | 2.37 ± 0.083 | 2.34 ± 0.096 | 1.95 ± 0.046 | 2.25 ± 0.067
11 | GRDKHALSLLYHLLNYD [SSN3] | 2.91 ± 0.074 | 2.92 ± 0.057 | 3.04 ± 0.064 | 2.94 ± 0.054
12 | DQYDAERDFYHSLREYI [RPO31] | 3.33 ± 0.076 | 3 ± 0.12 | 3.3 ± 0.091 | 3.07 ± 0.074
13 | IKIKSLEYEISKLKKET [YIL149C/MLP2] | 2.97 ± 0.26 | 2.97 ± 0.096 | 3.06 ± 0.07 | 2.99 ± 0.075
14 | ISNVIKPNQTIMVLDAS [SRP54] | 2.48 ± 0.062 | 2.56 ± 0.053 | 2.67 ± 0.059 | 2.83 ± 0.06
15 | EESISKFPDMGSLWVEF [RPB5] | 2.53 ± 0.073 | 2.98 ± 0.1 | 2.71 ± 0.1 | 2.77 ± 0.1
16 | LRLTEQKSPKIRDPLTQ [RPC82] | 1.6 ± 0.071 | 1.66 ± 0.041 | 1.92 ± 0.045 | 1.91 ± 0.12
17 | EKDFCTSCLQNNNQKID [SRB8] | 3.13 ± 0.09 | 3.29 ± 0.13 | 2.93 ± 0.055 | 
18 | TRSHEYGRKSFRNNKND [REC8] | 3.2 ± 0.11 | 3.16 ± 0.067 | 3.3 ± 0.067 | 3.29 ± 0.051
19 | FKLVSTPSSNSNSSELE [MED1] | 1.85 ± 0.058 | 2.29 ± 0.062 | 2.84 ± 0.046 | 2.35 ± 0.057
20 | RDMTYSAPIYVDIEYTR [RET1] | 2.17 ± 0.092 | 1.98 ± 0.083 | 1.81 ± 0.069 | 1.79 ± 0.14
21 | KKDRATGDADEPELRVL [RPO21] | 3.53 ± 0.11 | 3.48 ± 0.074 | 3.43 ± 0.046 | 3.39 ± 0.06
22 | ILADEMGLGKTLQTISF [ISW2] | 3.09 ± 0.07 | 3.06 ± 0.066 | 2.77 ± 0.061 | 2.91 ± 0.057
23 | VDVLGTHSQTGTQQSNM [SIR4] | 3.12 ± 0.18 | 2.91 ± 0.17 | 3.2 ± 0.067 | 
24 | HLNFPNVKFLRIFISNV [SNF12] | 1.79 ± 0.071 | 1.26 ± 0.094 | 1.19 ± 0.087 | 1.27 ± 0.13
25 | IKIGIRVMKSLSINEKD [YCG1] | 1.49 ± 0.087 | 1.61 ± 0.061 | 1.56 ± 0.091 | 1.36 ± 0.2
26 | ASSAVMNRRKIAMPKRR [YLR335W/NUP2] | 1.19 ± 0.074 | 1.3 ± 0.071 | 1.16 ± 0.11 | 1.23 ± 0.2

Row | Sequence | protein stability index (doa10∆) | protein stability index (pdr5∆) | protein stability index (ubr1∆) | protein stability index (san1∆)
27 | PSILEDSLENNEGVPSP [FAS1] | 3.29 ± 0.23 | 2.79 ± 0.22 | 3.14 ± 0.2 | 3.22 ± 0.17
28 | ISTAKAWGALITTFVKR [YML103C/NUP188] | 1.82 ± 0.051 | 2.22 ± 0.051 | 1.66 ± 0.058 | 1.64 ± 0.063
29 | EYMKRHPTTIESLREIP [SEC65] | 3.25 ± 0.082 | 3.21 ± 0.068 | 3.06 ± 0.06 | 3.17 ± 0.059
30 | TMTISHLLLGFQVSNVI [YJL039C/NUP192] | 1.41 ± 0.038 | 1.72 ± 0.039 | 1.77 ± 0.034 | 1.75 ± 0.06
31 | NAKKRVFKTHSYRGVDL [RPS15] | 2.93 ± 0.053 | 2.15 ± 0.033 | 3.32 ± 0.047 | 3.16 ± 0.039
32 | SYDFLPLSNIKALLFFN [RPN12] | 2.14 ± 0.047 | 1.96 ± 0.048 | 1.82 ± 0.044 | 1.42 ± 0.08
33 | DIGSDPTLPRSDRECPK [RPB9] | 2.7 ± 0.069 | 2.94 ± 0.078 | 3.14 ± 0.082 | 2.85 ± 0.076
34 | VIDLEKIKFDESSKLMT [BRR2] | 1.27 ± 0.1 | 1.43 ± 0.086 | 1.32 ± 0.053 | 1.18 ± 0.25
35 | MNIIQQQQQQNTNNNDT [GAL11] | 2.43 ± 0.042 | 2.63 ± 0.047 | 2.52 ± 0.04 | 2.46 ± 0.044
36 | DQFRDVEITFGKEFGDV [RRP45] | 3.21 ± 0.1 | 3.27 ± 0.063 | 3.18 ± 0.067 | 3.54 ± 0.086
37 | LPIYDSLMSSQNKLFYI [SIR3] | 2.15 ± 0.14 | 2.01 ± 0.14 | 1.38 ± 0.093 | 
38 | FKELCYENKDNLTAGII [PRE3] | 2.95 ± 0.044 | 2.95 ± 0.042 | 2.83 ± 0.039 | 2.93 ± 0.034
39 | NASANSTSFSFNAPATG [YOR098C/NUP1] | 2.99 ± 0.049 | 2.94 ± 0.051 | 2.96 ± 0.033 | 3.05 ± 0.046
40 | SGLFVDVKKRTYEAIDV [RPB2] | 2.48 ± 0.12 | 3.28 ± 0.12 | 3.14 ± 0.097 | 2.99 ± 0.1
41 | ATFLLTDIKDTLTKISM [MCD1] | 3.03 ± 0.13 | 3.14 ± 0.13 | 3.17 ± 0.08 | 2.88 ± 0.099
42 | QFAPAFLNTPNNNINEN [SSN2] | 2.92 ± 0.067 | 2.98 ± 0.063 | 2.89 ± 0.06 | 2.66 ± 0.068
43 | KVDSPDDPFMTKSGATT [GAL11] | 2.51 ± 0.077 | 2.63 ± 0.071 | 2.79 ± 0.045 | 2.59 ± 0.055
44 | KFILSGFIFTSMILEAI [RRI2] | 1.58 ± 0.06 | 1.2 ± 0.035 | 1.11 ± 0.048 | 1.17 ± 0.11
45 | IDQVNELVTISWVQPRI [RPN9] | 3.33 ± 0.069 | 3.28 ± 0.069 | 3.15 ± 0.067 | 3.22 ± 0.045
46 | MTVTKVSLPEGSFKRVK [BRR2] | 2.92 ± 0.13 | 2.72 ± 0.11 | 3.17 ± 0.076 | 3.19 ± 0.076
47 | IWLLSYIQYLGHLPEVS [ECM29] | 1.62 ± 0.071 | 1.9 ± 0.06 | 1.92 ± 0.057 | 2.21 ± 0.063
48 | SDGEDGHIPWHILAVKK [SSN2] | 3.02 ± 0.11 | 2.97 ± 0.15 | 3.16 ± 0.15 | 3.23 ± 0.1
49 | SNGEFIPHIFYSLHQIR [CSE2] | 2.02 ± 0.07 | 2.1 ± 0.054 | 2.34 ± 0.057 | 2.12 ± 0.072
50 | AFADRLGQYVQAHTLYN [PRE10] | 2.22 ± 0.085 | 1.95 ± 0.066 | 2.03 ± 0.11 | 1.74 ± 0.12
51 | TYDENDDFFKELAKEAK [ESC2] | 3.01 ± 0.11 | 2.83 ± 0.08 | 3.08 ± 0.075 | 2.65 ± 0.073
52 | KYMVKGGLSGEESIKIY [UBP6] | 2.32 ± 0.13 | 2.47 ± 0.1 | 2.67 ± 0.07 | 2.36 ± 0.093
